Test results: publication doi:10.1101/669069
Values joined by “and” are separate entries in the source; they are usually repeats but may differ in a detail not shown here. Equal values may be shown once.

Tests used:
[1] = stopped-flow tryptophan fluorescence, urea-induced dissociation kinetics; conditions: other: stopped-flow tryptophan fluorescence
[2] = target: Methionine S-adenosyltransferase (MAT) from U. urealiticum (U. urealiticum); assay: native MS
[3] = target: Methionine S-adenosyltransferase (MAT) from U. urealiticum (U. urealiticum); assay: crystal structure
[4] = target: Methionine S-adenosyltransferase (MAT) from U. urealiticum (U. urealiticum); assay: crystal structure; remark: listed apart in the source
[5] = target: Methionine S-adenosyltransferase (MAT) from U. urealiticum (U. urealiticum); assay: SEC-MALS
[6] = target: Methionine S-adenosyltransferase (MAT) from U. urealiticum (U. urealiticum); assay: SEC-MALS; remark: listed apart in the source

Row | stoichiometry N [2] | stoichiometry N [3] | stoichiometry N [4] | stoichiometry N [5] | stoichiometry N [6] | Substance | kobs of urea-induced tetramer dissociation (3 M urea, with SAM) [1]
1 |  |  |  |  |  | Methionine S-adenosyltransferase (MAT) from U. urealiticum | kobs ∼ 0.1sec^-1
2 | 4 and 2 | 4 | 4 | 4 and 2 | 4 | Methionine S-adenosyltransferase (MAT) from U. urealiticum (enzyme) | 
